The target in experiment [1] is recombinant soluble human 17-1A-antigen (human) (UniProt P16422). The experiment is described as follows: SPR (BIACORE 2000), s17-1A immobilized on CM5, 1. set.
For experiment [2] the target is unchanged. Description: SPR (BIACORE 2000), s17-1A immobilized on CM5, 2. set. For orientation: In SPR one partner is held on a chip, and binding of the other changes the refractive index at the surface.
Experiment [3] addresses T1, recombinant soluble human 17-1A-antigen (human, UniProt P16422 24-265).
T1 construct: extracellular domain; also called s17-1A; soluble 17-1A-antigen
T1 sequence (looked up): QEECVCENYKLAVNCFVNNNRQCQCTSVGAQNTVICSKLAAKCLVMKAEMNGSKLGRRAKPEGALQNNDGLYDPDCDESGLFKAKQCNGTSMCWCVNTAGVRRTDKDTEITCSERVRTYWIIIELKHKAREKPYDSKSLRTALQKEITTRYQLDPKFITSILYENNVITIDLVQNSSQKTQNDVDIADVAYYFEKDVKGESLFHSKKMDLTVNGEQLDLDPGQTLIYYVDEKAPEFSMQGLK
The description is as above. The procedure:
Surface plasmon resonance measurement was performed using the BIACORE 2000 device (Biacore AB, Freiburg, Freiburg, Germany). Immobilization of recombinant soluble 17-1A-antigen in each flow cell and analysis of the interaction was carried out with an automatic method in BIACORE 2000. The antigen was covalently coupled to sensor chip CM5 via primary amine groups. After activation of the carboxylated dextran matrix of CM5 sensor chip with a single injection of […] of 0.1 M N-hydroxisuccinimide/0.4 M N-ethyl-N′-(3-dimethylaminopropyl)-carbodiimide (NHS/EDC9) through all four flow cells, flow cells 1,2,3 and 4 were successively included into the flow path during injection of s17-1A-antigen (60 μg/ml in 10 mM sodium acetate, pH 4.7). Different contact times of 17-1A to the activated surface lead to approximately 2500 response units (RU9 in flow cell 1, 14000 RU in flow cell 2, 780 RU in flow cell 3 and 290 RU in flow cell 4). Excess activated esters were blocked by injection of 85 μl 1 M ethanolamine pH 5 over all four flow cells. Binding experiments were performed at 25° C. in buffer of pH 7.4 containing 10 mM Hepes, 150 mM NaCl, 3 mM EDTA and 0.005% surfactant P20. The binding kinetics of antibodies to immobilized recombinant 17-1A were determined by injecting antibody concentrations ranging from 0.5 to […]. The sensor chip was regenerated between each run with 100 mM Glycin, 500 mM NaCl, 0.005% Tween pH3. The association and dissociation rate constants, Kon and Koff were analysed using BIA-evaluation software from Biacore AB as described (Karlsson, (1991) J Immunol Meth 145: 229-240).
Two sets of affinity determinations were carried out (1. set: M79, H79, D7.2, Panorex; 2. set: Panorex, HD70); the murine Panorex was also included in set 2 as internal reference.

For two molecules, Kd, koff and kon results are on record in patent publication US20090081191A1 (MICROMET, published 2009).

B1: murine Panorex (antibody, INN chains, looked up, V domains shown)
VH: QVQLQQSGAELVRPGTSVKVSCKASGYAFTNYLIEWVKQRPGQGLEWIGVINPGSGGTNYNEKFKGKATLTADKSSSTAYMQLSSLTSDDSAVYFCARDGPWFAYWGQGTLVTVSA
VL: NIVMTQSPKSMSMSVGERVTLTCKASENVVTYVSWYQQKPEQSPKLLIYGASNRYTGVPDRFTGSGSATDFTLTISSVQAEDLADYHCGQGYSYPYTFGGGTKLEIK
B1: in experiment [1], the Kd turned out to be 200 nM, the koff was determined as 0.022 s⁻¹ and the kon worked out at 110000 M⁻¹ s⁻¹. In addition, in experiment [2], the Kd was found to be 270 nM, the koff worked out at 0.027 s⁻¹ and the kon amounted to 100000 M⁻¹ s⁻¹.

B2: HD70 (VD4.5huIgG1-k5.1) (antibody, V domains shown)
VH: EVQLLESGGGVVQPGRSLRLSCAASGFTFSSYGMHWVRQAPGKGLEWVAVISYDGSNKYYADSVKGRFTISRDNSKNTLYLQMNSLRAEDTAVYYCAKDMGWGSGWRPYYYYGMDVWGQGTTVTVSS
VL: ELQMTQSPSSLSASVGDRVTITCRASQSISSYLNWYQQKPGQPPKLLIYWASTRESGVPDRFSGSESGTNYTLTISSLQPEDFATYFCQQSDSLPITFGQGTRLDIQ
notes: Complete human IgG1 antibody produced in CHO cells; also called human HD70; not shown: human IgG1 heavy chain constant region
In the case of B2, in experiment [3], the Kd worked out at 390 nM, the koff worked out at 0.035 s⁻¹ and the kon is 90000 M⁻¹ s⁻¹.

Broadly, the Kd is a measure of binding affinity in units of concentration. A word on the koff: it is the rate constant with which the complex falls apart. For orientation: kon means the second-order rate constant of association.
